One block for each binder: values may come before it.
Columns and labels:
[1] = molecular target: T1, GC-hIgA (human); test: SPR (Biacore A100), antibody from culture supernatant on a protein A chip, GC-hIgA as analyte, 25 C, 1.2 mM CaCl2, pH 7.4 (step 22-3)
T1 construct: Recombinant human IgA used as the antigen in the Biacore A100 screen of step (22-3); also called recombinant human IgA GC-hIgA; human IgA
Protocol: The culture supernatant obtained by the above method was used to analyze GC-hIgA-binding ability using Biacore A100. Antibodies in the culture supernatant were immobilized onto Sensor chip CM5 (GE Healthcare Bio-Sciences Corp.) with protein A (Invitrogen Corp.) immobilized thereon in an appropriate amount by the amine coupling method. A buffer solution containing 20 mM ACES, 150 mM NaCl, 0.05% (w/v) Tween 20, and 1.2 mM CaCl₂) (pH 7.4) were used as a running buffer. GC-hIgA was also diluted with this buffer. Assay was all carried out at 25° C.

[2] = molecular target: T2, biotin-labeled recombinant human glypican 3 (human, UniProt P51654 25-563, biotin-labeled using EZ-Link NHS-PEG4-Biotin); test: phage ELISA (Fab displayed on phage) on biotin-labeled GPC3, 1.2 mM CaCl2 against 1 mM EDTA
T2 construct: also called GPC3; biotin-labeled GPC3
Protocol: The plate was left standing at 37° C. for 30 minutes for incubation. […] The plate was incubated for 1 hour. […] The chromogenic reaction of the solution in each well was terminated by the addition of sulfuric acid. Then, the developed color was assayed on the basis of absorbance at 450 nm.

[3] = molecular target: T3, biotinylated human IgA-Fc (human, UniProt P01876 123-333, biotin added at the C-terminal Avitag sequence by biotin ligase (BirA)); test: phage ELISA (Fab displayed on phage) on biotin-labeled IgA-Fc, 1.2 mM CaCl2 against 1 mM EDTA (step 22-4)
T3 construct: also called biotin-labeled hIgA-Fc
Protocol: Each well of the plate was washed with PBST to remove unbound antigens. […] The plate was left standing at 37° C. for 30 minutes for incubation. […] The plate was incubated for 1 hour. […] The chromogenic reaction of the solution in each well was terminated by the addition of sulfuric acid. Then, the developed color was assayed on the basis of absorbance at 450 nm.

[4] = molecular target: T3, biotinylated human IgA-Fc; test: phage ELISA (Fab displayed on phage) on biotin-labeled IgA-Fc, 1.2 mM CaCl2 against 1 mM EDTA (step 22-6)

T3 sequence (P01876 other isoform, or with tags, fused parts or gaps limits assumed): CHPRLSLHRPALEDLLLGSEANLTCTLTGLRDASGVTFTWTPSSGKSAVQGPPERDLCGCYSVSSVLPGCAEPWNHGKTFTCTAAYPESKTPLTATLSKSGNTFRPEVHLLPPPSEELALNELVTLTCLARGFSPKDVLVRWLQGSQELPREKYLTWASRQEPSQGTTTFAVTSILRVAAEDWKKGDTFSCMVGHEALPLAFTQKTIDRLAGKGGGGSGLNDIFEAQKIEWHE
T1 sequence (light, as listed by the source): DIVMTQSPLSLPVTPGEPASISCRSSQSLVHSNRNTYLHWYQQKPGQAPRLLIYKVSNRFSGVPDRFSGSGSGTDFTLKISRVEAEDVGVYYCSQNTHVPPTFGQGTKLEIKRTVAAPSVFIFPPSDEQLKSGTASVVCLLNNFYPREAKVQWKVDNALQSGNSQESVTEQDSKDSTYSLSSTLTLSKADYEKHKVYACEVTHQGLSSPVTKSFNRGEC
T2 sequence (P51654 other isoform, or with tags, fused parts or gaps limits assumed): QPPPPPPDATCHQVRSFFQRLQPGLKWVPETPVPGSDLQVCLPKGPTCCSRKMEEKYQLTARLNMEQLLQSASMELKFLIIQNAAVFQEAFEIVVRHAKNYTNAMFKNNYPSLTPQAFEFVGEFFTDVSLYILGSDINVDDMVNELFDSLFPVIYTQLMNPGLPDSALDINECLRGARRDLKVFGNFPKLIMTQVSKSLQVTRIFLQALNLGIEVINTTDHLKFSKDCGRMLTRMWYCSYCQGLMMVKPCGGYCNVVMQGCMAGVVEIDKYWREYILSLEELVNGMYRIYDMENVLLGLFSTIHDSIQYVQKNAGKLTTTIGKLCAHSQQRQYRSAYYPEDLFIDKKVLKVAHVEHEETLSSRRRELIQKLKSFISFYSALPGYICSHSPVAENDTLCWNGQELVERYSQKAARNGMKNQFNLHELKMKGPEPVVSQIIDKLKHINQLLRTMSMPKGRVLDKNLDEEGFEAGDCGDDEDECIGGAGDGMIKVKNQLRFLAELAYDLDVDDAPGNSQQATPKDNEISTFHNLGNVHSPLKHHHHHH

binding result [1]: binds
B1: GA1-IgG1 (antibody, V domains shown)
VH: EVQLVQSGAEVKKPGSSVKVSCKASGGTFSSYAISWVRQAPGQGLEWMGGIIPIFGTANYAQKFQGRVTITADESTSTAYMELSSLRSEDTAVYYCARVAPGNWGSPYFDYWGQGTLVTVSS
VL: DIQMTQSPSSLSASVGDRVTITCRASQSIEDDLAWYQQKPGKAPKLLIYEASSLQSGVPSRFSGSGSGTDFTLTISSLQPEDFATYYCQQRDSSPLTFGQGTKVEIKR
notes: From the Ca library; obtained in step (22-3)

binding result [2]: binds
B2: CSCM-01_023 (antibody, human IgG1, kappa, V domains shown)
VH: QVQLVQSGAEVKKPGASVKVSCKASGYTFTSYGISWVRQAPGQGLEWMGWISAYNGNTNYAQKLQGRVTMTTDTSTSTAYMELRSLRSDDTAVYYCARDSPLLWFGEPFFDYWGQGTLVTVSS
VL: DIQMTQSPSSLSASVGDRVTITCRASQSIEDDLAWYQQKPGKAPKLLIYHASTLQSGVPSRFSGSGSGTDFTLTISSLQPEDFATYYCQQSDSYPLTFGQGTKVEIKR
notes: Purified IgG in the ELISA of step (24-5)

binding result [3]: binds
B3: GA2-IgG1 (antibody, V domains shown)
VH: QVQLVQSGAEVKKPGSSVKVSCKASGGTFSSYAISWVRQAPGQGLEWMGGIIPIFGTANYAQKFQGRVTITADESTSTAYMELSSLRSEDTAVYYCARPRWETAISSDAFDIWGQGTMVTVSS
VL: DIQMTQSPSSLSASVGDRVTITCRASQSISDDLNWYQQKPGKAPKLLIYEASNLQSGVPSRFSGSGSGTDFTLTISSLQPEDFATYYCQQHSSSPLTFGQGTKVEIKR
notes: From the Ca library; obtained in step (22-4)

binding result [4]: binds
B4: GA3-IgG1 (antibody, V domains shown)
VH: QVQLVQSGAEVKKPGSSVKVSCKASGGTFSSYAISWVRQAPGQGLEWMGGIIPIFGTANYAQKFQGRVTITADESTSTAYMELSSLRSEDTAVYYCARGNGDYLEYFQHWGQGTLVTVSS
VL: DIQMTQSPSSLSASVGDRVTITCRASQSISDDLAWYQQKPGKAPKLLIYEASNLQSGVPSRFSGSGSGTDFTLTISSLQPEDFATYYCQQRDSSPLTFGQGTKVEIKR
notes: From the Ca library; obtained in step (22-6)

— US20220187308A1 (published 2022)
